Laboratory results reported in patent US20060024793A1.

Molecular target: thrombin (manufactured by Enzyme Research Laboratories)
Assay: cell-based or functional assay

Row | Secondary rate constant (+hep), thrombin inhibition in the presence of heparin | Secondary rate constant (-hep), thrombin inhibition in the absence of heparin | Substance
1 | 8.7e+06 M⁻¹ s⁻¹ | 7700 M⁻¹ s⁻¹ | ATIII DG44 peak (1) fraction (recombinant human antithrombin III produced by pKAN-ATIII AFDG44, CHO/DG44 cell) (from UniProt P01008 33-464)
2 | 2e+07 M⁻¹ s⁻¹ | 8600 M⁻¹ s⁻¹ | ATIII DG44 peak (2) fraction (recombinant human antithrombin III produced by pKAN-ATIII AFDG44, CHO/DG44 cell) (from UniProt P01008 33-464)
3 | 2.5e+07 M⁻¹ s⁻¹ | – | ATIII MS705 peak (2) fraction (recombinant human antithrombin III produced by pKAN-ATIII AFMS705, FUT8 gene-double-knockout CHO/DG44 cell) (from UniProt P01008 33-464)
4 | 2.6e+07 M⁻¹ s⁻¹ | 8800 M⁻¹ s⁻¹ | ATIII MS705 peak (3) fraction (recombinant human antithrombin III produced by pKAN-ATIII AFMS705, FUT8 gene-double-knockout CHO/DG44 cell) (from UniProt P01008 33-464)
5 | 2.3e+07 M⁻¹ s⁻¹ | 8200 M⁻¹ s⁻¹ | Neuart (human plasma-derived antithrombin III preparation, manufactured by Mitsubishi Pharma Corporation) (from UniProt P01008 33-464)
